In patent US20220213216A1 (SOUND BIOPHARMACEUTICALS, published 2022):

Legend:
[1] = biological target: T1, human Her2 with an Fc tag (AcroBiosystem, catalog number HE2-H5253) (human, UniProt P04626 23-652); test: BLI (Octet QKe), Her2-Fc on Protein A biosensors, 1:1 fit
T1 construct: extracellular domain; Bought protein, loaded on Protein A biosensors; also called Her2 antigen; extracellular region of the Her2 protein; not shown: Fc tag of the bought protein, not described
Method: (§1) Affinity assay: The OctetQKe instrument (Pall Life Sciences) was used to determine the affinity of the anti-Her2 antibody to the extracellular region of the Her2 protein. Briefly, human Her2 with an Fc tag in PBST (AcroBiosystem, catalog number HE2-H5253) was loaded onto the surface of ProteinA Capture Biosensors (ProA). Immobilization level was set at […]. Then a 60-second biosensor baseline step was performed, and the antigen/antibody association was analyzed for 180 seconds on the biosensor to test the antibody/antigen. The test molecules were then applied at a two-fold concentration gradient. The data analysis software version 8.2 (PALL/ForteBio) was used to evaluate the Octet data, and the full-fit 1:1 modal was used to determine the Kd value.
(§2) In order to detect the binding ability of the antibodies to Her2 antigen, biofilm interference technology (BLI) was used to analyze the interaction between the antibodies and Her2 antigen.

[2] = biological target: T1, human Her2 with an Fc tag …; test: BLI (OctetQKe); Fc-tagged human Her2 loaded on Protein A biosensors, antibody in two-fold dilutions, 1:1 fit; column head Kdis
Method: as §1

[3] = biological target: T1, human Her2 with an Fc tag …; test: BLI (OctetQKe); Fc-tagged human Her2 loaded on Protein A biosensors, antibody in two-fold dilutions, 1:1 fit
Method: as §1

[4] = biological target: T1, human Her2 with an Fc tag …; test: BLI (Octet QKe), Her2-Fc on Protein A biosensors, 1:1 fit; single-site bivalent Bi-Bs
Method: as §1, §2

[5] = biological target: T1, human Her2 with an Fc tag …; test: BLI (Octet QKe), Her2-Fc on Protein A biosensors, 1:1 fit; Bp-Bs with dual Her2 binding sites
Method: as §1, §2

Kd [1]	koff [2]	kon [3]	Kd [4]	Kd [5]	Binder
8.85 nM	0.00263 s⁻¹	298000 M⁻¹ s⁻¹			anti-Her2-VHH1-Fc (Fc fusion, Called a single-site bivalent antibody; 1; also called single-site bivalent antibody anti-Her2 VHH1-Fc; not shown: Fc and any linker are not described) QVQLVQSGGGLVQAGGSLRLSCAASGRTFSSYAMAWFRQAPGKEREFVAAISWSGANIYVADSVKGRFTISRDNAKDTVYLQMNSLKPEDTAVYYCAVKLGFAPVEERQYDYWGQGTQVTVSS
	0.000497 s⁻¹	163000 M⁻¹ s⁻¹	3.06 nM		bivalent anti-Her2 bispecific antibody Bi-Bs (anti-CD3 UCHT1 Fab with anti-Her2 VHH1 on both CL and CH1) (bispecific antibody, 3 is VL-CL-VHH1, so the heavy and light labels are probably swapped in this sentence; Expressed in E. coli and purified on Ni Sepharose) chain 1: EIVLTQSPATLSLSPGERATLSCSASSGVNYMHWYQQKPGQAPRRWIYDTSKLASGVPARFSGSGSGTSYSLTISSLEPEDFAVYYCHQRGGSYTFGGGTKLEIKRKLTVAAPSVFIFPPSDEQLKSGTASVVCLLNNFYPREAKVQWKVDNALQSGNSQESVTEQDSKDSTYSLSSTLTLSKADYEKHKVYACEVTHQGLSSPVTKSFNRGECGSQVQLVQSGGGLVQAGGSLRLSCAASGRTFSSYAMAWFRQAPGKEREFVAAISWSGANIYVADSVKGRFTISRDNAKDTVYLQMNSLKPEDTAVYYCAVKLGFAPVEERQYDYWGQGTQVTVSS chain 2: QVQLVQSGAEVKKPGASVKVSCKTSGYTFTSNWMHWVRQAPGQGLEWMGEIDPSDSYTNYNQKFKGRVTITVDKSASTAYMELSSLRSEDTAVYYCARGSNPYYYAMDYWGQGTLVTVSSKLASTKGPSVFPLAPSSKSTSGGTAALGCLVKDYFPEPVTVSWNSGALTSGVHTFPAVLQSSGLYSLSSVVTVPSSSLGTQTYICNVNHKPSNTKVDKKVGSGGGGSGGGGSGGGGSQVQLVQSGGGLVQAGGSLRLSCAASGRTFSSYAMAWFRQAPGKEREFVAAISWSGANIYVADSVKGRFTISRDNAKDTVYLQMNSLKPEDTAVYYCAVKLGFAPVEERQYDYWGQGTQVTVSS
	2.33e-05 s⁻¹	215000 M⁻¹ s⁻¹		0.109 nM	bispecific antibody Bp-Bs with dual Her2 binding sites (anti-CD3 UCHT1 Fab with anti-Her2 VHH1 on CL and anti-Her2 VHH2 on CH1) (bispecific antibody, VHHs are linked by (GGGGS)3; Expressed in E. coli and purified on Ni Sepharose; About 79 kDa) light: EIVLTQSPATLSLSPGERATLSCSASSGVNYMHWYQQKPGQAPRRWIYDTSKLASGVPARFSGSGSGTSYSLTISSLEPEDFAVYYCHQRGGSYTFGGGTKLEIKRKLTVAAPSVFIFPPSDEQLKSGTASVVCLLNNFYPREAKVQWKVDNALQSGNSQESVTEQDSKDSTYSLSSTLTLSKADYEKHKVYACEVTHQGLSSPVTKSFNRGECGSQVQLVQSGGGLVQAGGSLRLSCAASGRTFSSYAMAWFRQAPGKEREFVAAISWSGANIYVADSVKGRFTISRDNAKDTVYLQMNSLKPEDTAVYYCAVKLGFAPVEERQYDYWGQGTQVTVSS heavy: QVQLVQSGAEVKKPGASVKVSCKTSGYTFTSNWMHWVRQAPGQGLEWMGEIDPSDSYTNYNQKFKGRVTITVDKSASTAYMELSSLRSEDTAVYYCARGSNPYYYAMDYWGQGTLVTVSSASTKGPSVFPLAPSSKSTSGGTAALGCLVKDYFPEPVTVSWNSGALTSGVHTFPAVLQSSGLYSLSSVVTVPSSSLGTQTYICNVNHKPSNTKVDKKVEPKSCDKTHTCAAGGGGSGGGGSGGGGSQVQLQESGGGSVQAGGSLRLSCRASGFTFSSYAMSWVRQPPGKELEWVSAIWGGGDSQHYADSVKGRFTISRDNAKNTLYLQLNSLKTEDTGMYYCVKDRGPFFSGSKYVLGAADRGQGTQVTVSS
3.02 nM	8.99e-05 s⁻¹	29800 M⁻¹ s⁻¹			anti-Her2-VHH2-Fc (Fc fusion, Called a single-site bivalent antibody; 2; not shown: Fc and any linker are not described) QVQLQESGGGSVQAGGSLRLSCRASGFTFSSYAMSWVRQPPGKELEWVSAIWGGGDSQHYADSVKGRFTISRDNAKNTLYLQLNSLKTEDTGMYYCVKDRGPFFSGSKYVLGAADRGQGTQVTVSS
